{"source": "patent US20070192880", "key": {"SID-CDC-KRAB": {"target": "T1, SID-CDC-KRAB (UniProt P03372)", "T1 sequence": "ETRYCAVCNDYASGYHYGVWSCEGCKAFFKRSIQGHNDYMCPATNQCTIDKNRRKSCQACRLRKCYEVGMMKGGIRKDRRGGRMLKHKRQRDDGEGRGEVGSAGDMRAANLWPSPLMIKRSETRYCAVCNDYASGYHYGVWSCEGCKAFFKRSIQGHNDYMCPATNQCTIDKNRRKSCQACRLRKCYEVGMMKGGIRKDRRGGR", "assay": "cell_activity", "conditions": "COS-1"}, "CDC (expressed in cells)": {"target": "T2, CDC (expressed in cells) (UniProt P03372)", "T2 sequence": "T1 sequence", "assay": "cell_activity", "conditions": "COS-1; little effect in CHO"}, "SID-CDC": {"target": "T3, SID-CDC (UniProt P03372)", "T3 sequence": "T1 sequence", "assay": "cell_activity"}, "CDC-KRAB": {"target": "T4, CDC-KRAB (UniProt P03372)", "T4 sequence": "T1 sequence", "assay": "cell_activity", "conditions": "COS-1 and CHO; no effect without ERE"}, "CDC-SID": {"target": "T5, CDC-SID (UniProt P03372)", "T5 sequence": "T1 sequence", "assay": "cell_activity"}, "KRAB-CDC-SID": {"target": "T6, KRAB-CDC-SID (UniProt P03372)", "T6 sequence": "T1 sequence", "assay": "cell_activity", "conditions": "COS-1"}, "KRAB-CDC": {"target": "T7, KRAB-CDC (UniProt P03372)", "T7 sequence": "T1 sequence", "assay": "cell_activity", "conditions": "COS-1 and CHO; no effect without ERE"}, "ERα (Homo sapiens)": {"target": "T8, ERα (Homo sapiens) (UniProt P03372)", "T8 sequence": "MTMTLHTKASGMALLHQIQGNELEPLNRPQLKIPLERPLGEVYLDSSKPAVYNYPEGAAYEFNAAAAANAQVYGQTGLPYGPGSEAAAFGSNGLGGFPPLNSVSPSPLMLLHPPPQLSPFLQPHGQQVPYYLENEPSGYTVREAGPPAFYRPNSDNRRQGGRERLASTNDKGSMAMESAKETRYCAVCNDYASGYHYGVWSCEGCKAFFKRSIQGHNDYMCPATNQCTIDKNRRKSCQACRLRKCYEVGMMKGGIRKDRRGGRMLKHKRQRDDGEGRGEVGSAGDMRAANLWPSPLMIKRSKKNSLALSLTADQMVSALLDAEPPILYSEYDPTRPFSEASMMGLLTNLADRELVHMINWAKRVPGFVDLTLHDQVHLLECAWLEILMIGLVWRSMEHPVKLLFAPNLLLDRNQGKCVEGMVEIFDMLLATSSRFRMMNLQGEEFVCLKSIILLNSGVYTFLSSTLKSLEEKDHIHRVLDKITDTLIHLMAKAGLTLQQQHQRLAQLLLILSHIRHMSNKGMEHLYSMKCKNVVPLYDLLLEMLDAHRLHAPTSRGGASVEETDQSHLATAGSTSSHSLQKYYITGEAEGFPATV", "assay": "EMSA", "conditions": "EMSA competition"}, "[1]": {"target": "T9, CDC ERE binding module (ERα C domain - D hinge - C domain fusion) (UniProt P03372)", "T9 sequence": "T1 sequence", "assay": "EMSA", "conditions": "apparent Kd from EMSA competition"}, "ERα (expressed in cells)": {"target": "ERα (expressed in cells) (UniProt P03372)", "assay": "cell_activity", "conditions": "COS-1, E2; about 2-fold without ligand"}, "SID-CDC-SID": {"system": "SID-CDC-SID", "sequence (chain, as listed by the source)": "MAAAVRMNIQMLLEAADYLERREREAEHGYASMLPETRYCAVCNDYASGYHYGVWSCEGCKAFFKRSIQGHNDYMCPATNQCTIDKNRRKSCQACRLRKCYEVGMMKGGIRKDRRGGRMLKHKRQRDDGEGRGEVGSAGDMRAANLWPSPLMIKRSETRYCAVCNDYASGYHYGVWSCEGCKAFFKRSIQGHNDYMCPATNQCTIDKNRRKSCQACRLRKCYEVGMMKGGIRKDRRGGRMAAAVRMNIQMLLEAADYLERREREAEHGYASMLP", "assay": "cell_activity", "conditions": "COS-1; given as decreased about 60% of that observed with parent vector"}, "[2]": {"conditions": "COS-1 and CHO, no effect without ERE"}, "[3]": {"conditions": "COS-1, given as decreased about 60% of that observed with parent vector"}}, "data": [{"substance": "GGTCANNNTGACC (double strand) [SV40 enhancer/promoter with one consensus ERE]", "values": [{"measurement": "activity", "setting": "SID-CDC-KRAB", "result": 95, "unit": "% repression"}, {"measurement": "activity", "setting": "CDC (expressed in cells)", "result": 50, "unit": "% repression"}, {"measurement": "activity", "setting": "SID-CDC; [2]", "result": 50, "unit": "% repression"}, {"measurement": "activity", "setting": "CDC-KRAB", "result": 80, "unit": "% repression"}, {"measurement": "activity", "setting": "CDC-SID; [2]", "result": 80, "unit": "% repression"}, {"measurement": "activity", "setting": "KRAB-CDC-SID", "result": 95, "unit": "% repression"}, {"measurement": "activity", "setting": "KRAB-CDC", "result": 50, "unit": "% repression"}]}, {"substance": "GGTCANNNTGACC (double strand) [consensus ERE]", "values": [{"measurement": "Kd", "setting": "ERα (Homo sapiens)", "result": 0.26, "unit": "nM"}, {"measurement": "Kd", "setting": "[1]", "result": 1.49, "unit": "nM"}]}, {"substance": "complement C3 promoter", "values": [{"measurement": "activity", "setting": "ERα (expressed in cells)", "result": 11, "unit": "fold"}]}, {"substance": "cathepsin D promoter", "values": [{"measurement": "activity", "setting": "SID-CDC; [3]", "result": 60, "unit": "% repression"}, {"measurement": "activity", "setting": "CDC-SID; [3]", "result": 60, "unit": "% repression"}, {"measurement": "activity", "setting": "SID-CDC-SID", "result": 60, "unit": "% repression"}]}]}
